Paper PMC9352680, “A comprehensive thermodynamic model for RNA binding by the Saccharomyces cerevisiae Pumilio protein PUF4”

T1: PUF4 RNA-binding domain (Saccharomyces cerevisiae, UniProt P25339 537-888)
T1 sequence: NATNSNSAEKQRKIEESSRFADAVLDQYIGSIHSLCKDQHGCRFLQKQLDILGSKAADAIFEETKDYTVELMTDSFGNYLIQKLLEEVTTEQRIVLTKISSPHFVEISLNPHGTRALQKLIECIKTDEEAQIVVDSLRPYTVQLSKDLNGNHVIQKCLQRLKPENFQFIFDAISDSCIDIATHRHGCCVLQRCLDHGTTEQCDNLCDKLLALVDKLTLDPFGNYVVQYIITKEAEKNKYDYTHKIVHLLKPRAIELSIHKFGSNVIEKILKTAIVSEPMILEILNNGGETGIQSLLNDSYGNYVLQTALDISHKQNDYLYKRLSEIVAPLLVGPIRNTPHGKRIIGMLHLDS


Molecular target: T1, PUF4 RNA-binding domain
Experiment: Mg; RNA-MaP; 20 mM Na-HEPES pH 7.4, 30 mM KOAc, 0.75 mM MgCl2, 0.1% Tween-20, 5% glycerol, 0.1 mg/mL BSA, 2 mM DTT; 25 C; 0.0125-409.6 nM protein
Conditions: tags: N-His6-TEV cleaved; C-SNAP kept, Cy3B-labelled; label: tethered on chip by stalled RNA polymerase

Binder | Kd [nM]
UCUCUUUGUACUAUGAUCUCUU (ssRNA) [Ib_S1_P5E.1_K5.1_C5.1_H5.1_A5.1_[T5C]_F5.1_[T9G]_T5.1] | 13.2
UCUCUUUGUAUUCAUAUCUCUU (ssRNA) [Ib_S1_P5E.1_K5.1_C5.1_H5.1_A5.1_[A7C]_F5.1_[T8A]_T5.1] | 14
UCUCUUUGUAUAUUUCUCUU (ssRNA) [Ic_S1_P3E.1_K3.1_C3.1_H3.1_A3.1_F3.1_[A8T]_T3.1] | 4.59
UCUCUUUGUCUUAUUAUCUCUU (ssRNA) [Ia_S1_P5E.1_K5.1_C5.1_H5.1_[A4C]_A5.1_F5.1_T5.1] | 38.3
Id_ii_S2_P5E.3_K5.2_C5.2_[T-1G]_H5.2_A5.1_F5.1_T5.2_[A12T] (ssRNA) RNA: UUUGAUUAAUAUGAUAUCGUUCUUUCUCGUAUAUUAUUAUUUUCUUUCUCGAUAUCAUAUUAAUCUUU | 11.9
Id_ii_S2_P5E.3_K5.2_C5.2_[T-1A]_H5.2_A5.1_F5.1_T5.2_[T11A]_[A12C] (ssRNA) RNA: UUUGAUUAAUAUGAUAUCGUUCUUUCUCAUAUAUUAUUAACUUCUUUCUCGAUAUCAUAUUAAUCUUU | 96.4
Id_ii_S2_P5E.4_K5.3_C5.2_[C-2G]_[T-1C]_H5.3_A5.1_F5.1_T5.2_[T11A]_[A12C] (ssRNA) RNA: UUUGAUUAAUAUGAUAUCGUUCUUUCUGCACACUUAUUAACUUCUUUCUCGAUAUCAUAUUAAUCUUU | 451
Id_ii_S2_P5E.4_K5.3_C5.2_[C-2G]_[T-1C]_H5.3_A5.1_F5.1_T5.2_[T11A]_[A12T] (ssRNA) RNA: UUUGAUUAAUAUGAUAUCGUUCUUUCUGCACACUUAUUAAUUUCUUUCUCGAUAUCAUAUUAAUCUUU | 408
Id_ii_S2_P5E.3_K5.2_C5.2_H5.2_A5.1_F5.1_T5.2_[T11G]_[A12T] (ssRNA) RNA: UUUGAUUAAUAUGAUAUCGUUCUUUCUCUUAUAUUAUUAGUUUCUUUCUCGAUAUCAUAUUAAUCUUU | 462
Id_ii_S2_P5E.3_K5.2_C5.2_[T-1C]_H5.2_A5.1_F5.1_T5.2_[T11A]_[A12G] (ssRNA) RNA: UUUGAUUAAUAUGAUAUCGUUCUUUCUCCUAUAUUAUUAAGUUCUUUCUCGAUAUCAUAUUAAUCUUU | 887
Id_ii_S2_P5E.3_K5.2_C5.2_[T-1A]_H5.2_A5.1_F5.1_T5.2_[T11A] (ssRNA) RNA: UUUGAUUAAUAUGAUAUCGUUCUUUCUCAUAUAUUAUUAAAUUCUUUCUCGAUAUCAUAUUAAUCUUU | 246
Id_ii_S2_P5E.3_K5.2_C5.2_[T-1C]_H5.2_A5.1_F5.1_T5.2_[T11C]_[A12T] (ssRNA) RNA: UUUGAUUAAUAUGAUAUCGUUCUUUCUCCUAUAUUAUUACUUUCUUUCUCGAUAUCAUAUUAAUCUUU | 57.9
Id_ii_S2_P5E.4_K5.3_C5.2_[C-2G]_[T-1C]_H5.3_A5.1_F5.1_T5.2_[T11C]_[A12G] (ssRNA) RNA: UUUGAUUAAUAUGAUAUCGUUCUUUCUGCACACUUAUUACGUUCUUUCUCGAUAUCAUAUUAAUCUUU | > 2300
Id_ii_S2_P5E.3_K5.2_C5.2_[T-1C]_H5.2_A5.1_F5.1_T5.2_[A12T] (ssRNA) RNA: UUUGAUUAAUAUGAUAUCGUUCUUUCUCCUAUAUUAUUAUUUUCUUUCUCGAUAUCAUAUUAAUCUUU | 79.4
Id_ii_S2_P5E.3_K5.2_C5.2_H5.2_A5.1_F5.1_T5.2_[T11A]_[A12C] (ssRNA) RNA: UUUGAUUAAUAUGAUAUCGUUCUUUCUCUUAUAUUAUUAACUUCUUUCUCGAUAUCAUAUUAAUCUUU | 230
Id_ii_S2_P5E.3_K5.2_C5.2_[T-1A]_H5.2_A5.1_F5.1_T5.2_[T11C] (ssRNA) RNA: UUUGAUUAAUAUGAUAUCGUUCUUUCUCAUAUAUUAUUACAUUCUUUCUCGAUAUCAUAUUAAUCUUU | 166
Id_ii_S2_P5E.3_K5.2_C5.2_H5.2_A5.1_F5.1_T5.2_[T11C]_[A12T] (ssRNA) RNA: UUUGAUUAAUAUGAUAUCGUUCUUUCUCUUAUAUUAUUACUUUCUUUCUCGAUAUCAUAUUAAUCUUU | 77.9
Id_ii_S2_P5E.3_K5.2_C5.2_[T-1A]_H5.2_A5.1_F5.1_T5.2_[T11C]_[A12G] (ssRNA) RNA: UUUGAUUAAUAUGAUAUCGUUCUUUCUCAUAUAUUAUUACGUUCUUUCUCGAUAUCAUAUUAAUCUUU | 372
Id_ii_S2_P5E.3_K5.2_C5.2_H5.2_A5.1_F5.1_T5.2_[T11C]_[A12G] (ssRNA) RNA: UUUGAUUAAUAUGAUAUCGUUCUUUCUCUUAUAUUAUUACGUUCUUUCUCGAUAUCAUAUUAAUCUUU | 426
Id_ii_S2_P5E.4_K5.3_C5.2_[C-2G]_[T-1C]_H5.3_A5.1_F5.1_T5.2_[T11C] (ssRNA) RNA: UUUGAUUAAUAUGAUAUCGUUCUUUCUGCACACUUAUUACAUUCUUUCUCGAUAUCAUAUUAAUCUUU | 729
Id_ii_S2_P5E.3_K5.2_C5.2_H5.2_A5.1_F5.1_T5.2_[A12T] (ssRNA) RNA: UUUGAUUAAUAUGAUAUCGUUCUUUCUCUUAUAUUAUUAUUUUCUUUCUCGAUAUCAUAUUAAUCUUU | 110
Id_ii_S2_P5E.4_K5.3_C5.2_[C-2G]_[T-1C]_H5.3_A5.1_F5.1_T5.2_[A12C] (ssRNA) RNA: UUUGAUUAAUAUGAUAUCGUUCUUUCUGCACACUUAUUAUCUUCUUUCUCGAUAUCAUAUUAAUCUUU | 359

Binder | Kd [nM]
Id_ii_S2_P5E.3_K5.2_C5.2_[T-1A]_H5.2_A5.1_F5.1_T5.2_[T11A]_[A12G] (ssRNA) RNA: UUUGAUUAAUAUGAUAUCGUUCUUUCUCAUAUAUUAUUAAGUUCUUUCUCGAUAUCAUAUUAAUCUUU | 1200
Id_ii_S2_P5E.3_K5.2_C5.2_H5.2_A5.1_F5.1_T5.2_[T11C]_[A12C] (ssRNA) RNA: UUUGAUUAAUAUGAUAUCGUUCUUUCUCUUAUAUUAUUACCUUCUUUCUCGAUAUCAUAUUAAUCUUU | 92.1
Id_ii_S2_P5E.3_K5.2_C5.2_[T-1C]_H5.2_A5.1_F5.1_T5.2_[T11C]_[A12G] (ssRNA) RNA: UUUGAUUAAUAUGAUAUCGUUCUUUCUCCUAUAUUAUUACGUUCUUUCUCGAUAUCAUAUUAAUCUUU | 392
Id_ii_S2_P5E.3_K5.2_C5.2_[T-1A]_H5.2_A5.1_F5.1_T5.2_[T11C]_[A12C] (ssRNA) RNA: UUUGAUUAAUAUGAUAUCGUUCUUUCUCAUAUAUUAUUACCUUCUUUCUCGAUAUCAUAUUAAUCUUU | 69.4
Id_ii_S2_P5E.3_K5.2_C5.2_H5.2_A5.1_F5.1_T5.2_[T11G]_[A12C] (ssRNA) RNA: UUUGAUUAAUAUGAUAUCGUUCUUUCUCUUAUAUUAUUAGCUUCUUUCUCGAUAUCAUAUUAAUCUUU | 127
Id_ii_S2_P5E.3_K5.2_C5.2_[T-1C]_H5.2_A5.1_F5.1_T5.2_[T11C]_[A12C] (ssRNA) RNA: UUUGAUUAAUAUGAUAUCGUUCUUUCUCCUAUAUUAUUACCUUCUUUCUCGAUAUCAUAUUAAUCUUU | 87.3
Id_ii_S2_P5E.3_K5.2_C5.2_[T-1A]_H5.2_A5.1_F5.1_T5.2_[A12C] (ssRNA) RNA: UUUGAUUAAUAUGAUAUCGUUCUUUCUCAUAUAUUAUUAUCUUCUUUCUCGAUAUCAUAUUAAUCUUU | 151
Id_ii_S2_P5E.3_K5.2_C5.2_[T-1A]_H5.2_A5.1_F5.1_T5.2_[T11C]_[A12T] (ssRNA) RNA: UUUGAUUAAUAUGAUAUCGUUCUUUCUCAUAUAUUAUUACUUUCUUUCUCGAUAUCAUAUUAAUCUUU | 90.7
Id_ii_S2_P5E.3_K5.2_C5.2_H5.2_A5.1_F5.1_T5.2_[A12C] (ssRNA) RNA: UUUGAUUAAUAUGAUAUCGUUCUUUCUCUUAUAUUAUUAUCUUCUUUCUCGAUAUCAUAUUAAUCUUU | 65.7
Id_ii_S2_P5E.3_K5.2_C5.2_[T-1A]_H5.2_A5.1_F5.1_T5.2_[A12T] (ssRNA) RNA: UUUGAUUAAUAUGAUAUCGUUCUUUCUCAUAUAUUAUUAUUUUCUUUCUCGAUAUCAUAUUAAUCUUU | 223
Id_ii_S2_P5E.3_K5.2_C5.2_H5.2_A5.1_F5.1_T5.2_[T11C] (ssRNA) RNA: UUUGAUUAAUAUGAUAUCGUUCUUUCUCUUAUAUUAUUACAUUCUUUCUCGAUAUCAUAUUAAUCUUU | 103
Id_ii_S2_P5E.3_K5.2_C5.2_[T-1C]_H5.2_A5.1_F5.1_T5.2_[T11A]_[A12T] (ssRNA) RNA: UUUGAUUAAUAUGAUAUCGUUCUUUCUCCUAUAUUAUUAAUUUCUUUCUCGAUAUCAUAUUAAUCUUU | 138
Id_ii_S2_P5E.4_K5.3_C5.2_[C-2G]_[T-1C]_H5.3_A5.1_F5.1_T5.2_[T11C]_[A12T] (ssRNA) RNA: UUUGAUUAAUAUGAUAUCGUUCUUUCUGCACACUUAUUACUUUCUUUCUCGAUAUCAUAUUAAUCUUU | 409
Id_ii_S2_P5E.4_K5.3_C5.2_[C-2G]_[T-1C]_H5.3_A5.1_F5.1_T5.2_[T11A] (ssRNA) RNA: UUUGAUUAAUAUGAUAUCGUUCUUUCUGCACACUUAUUAAAUUCUUUCUCGAUAUCAUAUUAAUCUUU | 549
Id_ii_S2_P5E.3_K5.2_C5.2_H5.2_A5.1_F5.1_T5.2_[T11A]_[A12T] (ssRNA) RNA: UUUGAUUAAUAUGAUAUCGUUCUUUCUCUUAUAUUAUUAAUUUCUUUCUCGAUAUCAUAUUAAUCUUU | 234
Id_ii_S2_P5E.3_K5.2_C5.2_[T-1C]_H5.2_A5.1_F5.1_T5.2_[T11A] (ssRNA) RNA: UUUGAUUAAUAUGAUAUCGUUCUUUCUCCUAUAUUAUUAAAUUCUUUCUCGAUAUCAUAUUAAUCUUU | 151
Id_ii_S2_P5E.3_K5.2_C5.2_[T-1A]_H5.2_A5.1_F5.1_T5.2_[T11A]_[A12T] (ssRNA) RNA: UUUGAUUAAUAUGAUAUCGUUCUUUCUCAUAUAUUAUUAAUUUCUUUCUCGAUAUCAUAUUAAUCUUU | 131
Id_ii_S2_P5E.3_K5.2_C5.2_[T-1A]_H5.2_A5.1_F5.1_T5.2_[T11G]_[A12C] (ssRNA) RNA: UUUGAUUAAUAUGAUAUCGUUCUUUCUCAUAUAUUAUUAGCUUCUUUCUCGAUAUCAUAUUAAUCUUU | 112
Id_ii_S2_P5E.3_K5.2_C5.2_[T-1C]_H5.2_A5.1_F5.1_T5.2_[T11A]_[A12C] (ssRNA) RNA: UUUGAUUAAUAUGAUAUCGUUCUUUCUCCUAUAUUAUUAACUUCUUUCUCGAUAUCAUAUUAAUCUUU | 108
UCUCUUUGUAAUAUGAUCUCUU (ssRNA) [Ib_S1_P5E.1_K5.1_C5.1_H5.1_A5.1_[T5A]_F5.1_[T9G]_T5.1] | 22.3
UCUCUUUGUAUUUAUAUCUCUU (ssRNA) [Ib_S1_P5E.1_K5.1_C5.1_H5.1_A5.1_[A7T]_F5.1_[T8A]_T5.1] | 5.27
